Data as given in patent publication US20230406885A1, “CYCLIC PEPTIDES FOR TRAPPING INTERLEUKIN-1 BETA” (MERCK SHARP & DOHME LLC, priority 2022, published 2023).
Each block holds one binder with its values, some of them ahead of it. *1 amine or outer side, *2 acyl side, *3 side chain or, on linkers, in order; H or OH if unused. [ ]: non-standard residue; d: D form. TyrEtNAc = L-tyrosine O-ethyl acetamide, (S)-3-(4-(2-acetamidoethoxy)phenyl)-2-aminopropanoic acid, CC(=O)NCCOc1ccc(C[C@H](N[*:1])C(=O)[*:2])cc1; Pro(trans-4-NH2) = O=C([C@@H]1C[C@@H](N[*:3])CN1[*:1])[*:2]; Bip(4'-COOH) = N[C@@H](Cc1ccc(-c2ccc(C(=O)O)cc2)cc1)C(=O)O; 1Nal(3S-Me) = C[C@@H](c1cccc2ccccc12)[C@H](N)C(=O)O; Ala(indazol-1-yl) = N[C@@H](Cn1ncc2ccccc21)C(=O)O; Ala(indolin-1-yl) = N[C@@H](CN1CCc2ccccc21)C(=O)O; Phe(4-COOH) = N[C@@H](Cc1ccc(C(=O)O)cc1)C(=O)O; h3Pal(5-CN) = N#Cc1cncc(CC[C@H](N)C(=O)O)c1; 1Nal = N[C@@H](Cc1cccc2ccccc12)C(=O)O; hTyr = N[C@@H](CCc1ccc(O)cc1)C(=O)O; dDab = NCC[C@@H](N)C(=O)O; Orn = NCCC[C@H](N)C(=O)O; dNMeA = CN[C@H](C)C(=O)O; Dab = NCC[C@H](N)C(=O)O; Nva = CCC[C@H](N)C(=O)O; Dap = NC[C@H](N)C(=O)O; Aib = CC(C)(N)C(=O)O

Key:
[1] = target: Recombinant human IL-1β (BioLegend 579404) (human, UniProt P01584 117-269); test: cell-based or functional assay
[2] = target: Recombinant human IL-1β (BioLegend 579404) (human, UniProt P01584 117-269); test: cell-based or functional assay; remark: listed apart in the source

B1: SEQ ID NO: 98 (peptide)
peptide: cyclo([TyrEtNAc]W[Phe(4-COOH)]G[Pro(trans-4-NH2)][1Nal(3S-Me)]D[dNMeA]G[Bip(4'-COOH)][1Nal][Nva][dA]A)
SMILES: CCC[C@@H]1NC(=O)[C@H](Cc2cccc3ccccc23)NC(=O)[C@H](Cc2ccc(-c3ccc(C(=O)O)cc3)cc2)NC(=O)CNC(=O)[C@@H](C)N(C)C(=O)[C@H](CC(=O)O)NC(=O)[C@H]([C@@H](C)c2cccc3ccccc23)NC(=O)[C@@H]2C[C@@H](N)CN2C(=O)CNC(=O)[C@H](Cc2ccc(C(=O)O)cc2)NC(=O)[C@H](Cc2c[nH]c3ccccc23)NC(=O)[C@H](Cc2ccc(OCCNC(C)=O)cc2)NC(=O)[C@H](C)NC(=O)[C@@H](C)NC1=O
MRC5 IC50 [1]: 0.494 nM

B3: SEQ ID NO: 95 (peptide)
peptide: cyclo([TyrEtNAc]W[Phe(4-COOH)]G[Pro(trans-4-NH2)][1Nal(3S-Me)]D[dNMeA]G[Bip(4'-COOH)][1Nal]L[Aib]G)
SMILES: CC(=O)NCCOc1ccc(C[C@@H]2NC(=O)CNC(=O)C(C)(C)NC(=O)[C@H](CC(C)C)NC(=O)[C@H](Cc3cccc4ccccc34)NC(=O)[C@H](Cc3ccc(-c4ccc(C(=O)O)cc4)cc3)NC(=O)CNC(=O)[C@@H](C)N(C)C(=O)[C@H](CC(=O)O)NC(=O)[C@H]([C@@H](C)c3cccc4ccccc34)NC(=O)[C@@H]3C[C@@H](N)CN3C(=O)CNC(=O)[C@H](Cc3ccc(C(=O)O)cc3)NC(=O)[C@H](Cc3c[nH]c4ccccc34)NC2=O)cc1
MRC5 IC50 [1]: 0.422 nM

B4: SEQ ID NO: 122 (Example No. 122) (peptide)
peptide: cyclo([TyrEtNAc]W[Phe(4-COOH)]G[Pro(trans-4-NH2)][1Nal(3S-Me)]D[dNMeA]G[Bip(4'-COOH)]WG[dDab][h3Pal(5-CN)])
SMILES: CC(=O)NCCOc1ccc(C[C@@H]2NC(=O)[C@H](CCc3cncc(C#N)c3)NC(=O)[C@@H](CCN)NC(=O)CNC(=O)[C@H](Cc3c[nH]c4ccccc34)NC(=O)[C@H](Cc3ccc(-c4ccc(C(=O)O)cc4)cc3)NC(=O)CNC(=O)[C@@H](C)N(C)C(=O)[C@H](CC(=O)O)NC(=O)[C@H]([C@@H](C)c3cccc4ccccc34)NC(=O)[C@@H]3C[C@@H](N)CN3C(=O)CNC(=O)[C@H](Cc3ccc(C(=O)O)cc3)NC(=O)[C@H](Cc3c[nH]c4ccccc34)NC2=O)cc1
MRC5 IC50 [2]: 0.0248 nM

B6: SEQ ID NO: 94 (peptide)
peptide: cyclo([TyrEtNAc]W[Phe(4-COOH)]G[Pro(trans-4-NH2)][1Nal(3S-Me)]D[dNMeA]G[Bip(4'-COOH)][1Nal][Dap][Aib][h3Pal(5-CN)])
SMILES: CC(=O)NCCOc1ccc(C[C@@H]2NC(=O)[C@H](CCc3cncc(C#N)c3)NC(=O)C(C)(C)NC(=O)[C@H](CN)NC(=O)[C@H](Cc3cccc4ccccc34)NC(=O)[C@H](Cc3ccc(-c4ccc(C(=O)O)cc4)cc3)NC(=O)CNC(=O)[C@@H](C)N(C)C(=O)[C@H](CC(=O)O)NC(=O)[C@H]([C@@H](C)c3cccc4ccccc34)NC(=O)[C@@H]3C[C@@H](N)CN3C(=O)CNC(=O)[C@H](Cc3ccc(C(=O)O)cc3)NC(=O)[C@H](Cc3c[nH]c4ccccc34)NC2=O)cc1
MRC5 IC50 [1]: 0.0639 nM

B9: SEQ ID NO: 93 (peptide)
peptide: cyclo([TyrEtNAc]W[Phe(4-COOH)]G[Pro(trans-4-NH2)][1Nal(3S-Me)]D[dNMeA]G[Bip(4'-COOH)][1Nal][Dab][Aib][hTyr])
SMILES: CC(=O)NCCOc1ccc(C[C@@H]2NC(=O)[C@H](CCc3ccc(O)cc3)NC(=O)C(C)(C)NC(=O)[C@H](CCN)NC(=O)[C@H](Cc3cccc4ccccc34)NC(=O)[C@H](Cc3ccc(-c4ccc(C(=O)O)cc4)cc3)NC(=O)CNC(=O)[C@@H](C)N(C)C(=O)[C@H](CC(=O)O)NC(=O)[C@H]([C@@H](C)c3cccc4ccccc34)NC(=O)[C@@H]3C[C@@H](N)CN3C(=O)CNC(=O)[C@H](Cc3ccc(C(=O)O)cc3)NC(=O)[C@H](Cc3c[nH]c4ccccc34)NC2=O)cc1
MRC5 IC50 [1]: 0.12 nM

B10: SEQ ID NO: 121 (Example No. 121) (peptide)
peptide: cyclo([TyrEtNAc]W[Phe(4-COOH)]G[Pro(trans-4-NH2)][1Nal(3S-Me)]D[dNMeA]G[Bip(4'-COOH)]W[Dap][dNMeA][hTyr])
SMILES: CC(=O)NCCOc1ccc(C[C@@H]2NC(=O)[C@H](CCc3ccc(O)cc3)NC(=O)[C@@H](C)N(C)C(=O)[C@H](CN)NC(=O)[C@H](Cc3c[nH]c4ccccc34)NC(=O)[C@H](Cc3ccc(-c4ccc(C(=O)O)cc4)cc3)NC(=O)CNC(=O)[C@@H](C)N(C)C(=O)[C@H](CC(=O)O)NC(=O)[C@H]([C@@H](C)c3cccc4ccccc34)NC(=O)[C@@H]3C[C@@H](N)CN3C(=O)CNC(=O)[C@H](Cc3ccc(C(=O)O)cc3)NC(=O)[C@H](Cc3c[nH]c4ccccc34)NC2=O)cc1
MRC5 IC50 [2]: 0.085 nM

B12: SEQ ID NO: 92 (peptide)
peptide: cyclo([TyrEtNAc]W[Phe(4-COOH)]G[Pro(trans-4-NH2)][1Nal(3S-Me)]D[dNMeA]G[Bip(4'-COOH)][1Nal][Dab][Aib]G)
SMILES: CC(=O)NCCOc1ccc(C[C@@H]2NC(=O)CNC(=O)C(C)(C)NC(=O)[C@H](CCN)NC(=O)[C@H](Cc3cccc4ccccc34)NC(=O)[C@H](Cc3ccc(-c4ccc(C(=O)O)cc4)cc3)NC(=O)CNC(=O)[C@@H](C)N(C)C(=O)[C@H](CC(=O)O)NC(=O)[C@H]([C@@H](C)c3cccc4ccccc34)NC(=O)[C@@H]3C[C@@H](N)CN3C(=O)CNC(=O)[C@H](Cc3ccc(C(=O)O)cc3)NC(=O)[C@H](Cc3c[nH]c4ccccc34)NC2=O)cc1
MRC5 IC50 [1]: 0.457 nM

Next, values leading:

MRC5 IC50 [1]: 0.256 nM
B2: SEQ ID NO: 99 (peptide)
peptide: cyclo([TyrEtNAc]W[Phe(4-COOH)]G[Pro(trans-4-NH2)][1Nal(3S-Me)]D[dNMeA]G[Bip(4'-COOH)][1Nal][Orn][Aib][hTyr])
SMILES: CC(=O)NCCOc1ccc(C[C@@H]2NC(=O)[C@H](CCc3ccc(O)cc3)NC(=O)C(C)(C)NC(=O)[C@H](CCCN)NC(=O)[C@H](Cc3cccc4ccccc34)NC(=O)[C@H](Cc3ccc(-c4ccc(C(=O)O)cc4)cc3)NC(=O)CNC(=O)[C@@H](C)N(C)C(=O)[C@H](CC(=O)O)NC(=O)[C@H]([C@@H](C)c3cccc4ccccc34)NC(=O)[C@@H]3C[C@@H](N)CN3C(=O)CNC(=O)[C@H](Cc3ccc(C(=O)O)cc3)NC(=O)[C@H](Cc3c[nH]c4ccccc34)NC2=O)cc1

MRC5 IC50 [1]: 0.0234 nM
B5: SEQ ID NO: 91 (peptide)
peptide: cyclo([TyrEtNAc]W[Phe(4-COOH)]G[Pro(trans-4-NH2)][1Nal(3S-Me)]D[dNMeA]G[Bip(4'-COOH)][Ala(indolin-1-yl)]G[dDab][h3Pal(5-CN)])
SMILES: CC(=O)NCCOc1ccc(C[C@@H]2NC(=O)[C@H](CCc3cncc(C#N)c3)NC(=O)[C@@H](CCN)NC(=O)CNC(=O)[C@H](CN3CCc4ccccc43)NC(=O)[C@H](Cc3ccc(-c4ccc(C(=O)O)cc4)cc3)NC(=O)CNC(=O)[C@@H](C)N(C)C(=O)[C@H](CC(=O)O)NC(=O)[C@H]([C@@H](C)c3cccc4ccccc34)NC(=O)[C@@H]3C[C@@H](N)CN3C(=O)CNC(=O)[C@H](Cc3ccc(C(=O)O)cc3)NC(=O)[C@H](Cc3c[nH]c4ccccc34)NC2=O)cc1

MRC5 IC50 [1]: 0.294 nM
B7: SEQ ID NO: 97 (peptide)
peptide: cyclo([TyrEtNAc]W[Phe(4-COOH)]G[Pro(trans-4-NH2)][1Nal(3S-Me)]D[dNMeA]G[Bip(4'-COOH)][1Nal]L[dA]A)
SMILES: CC(=O)NCCOc1ccc(C[C@@H]2NC(=O)[C@H](C)NC(=O)[C@@H](C)NC(=O)[C@H](CC(C)C)NC(=O)[C@H](Cc3cccc4ccccc34)NC(=O)[C@H](Cc3ccc(-c4ccc(C(=O)O)cc4)cc3)NC(=O)CNC(=O)[C@@H](C)N(C)C(=O)[C@H](CC(=O)O)NC(=O)[C@H]([C@@H](C)c3cccc4ccccc34)NC(=O)[C@@H]3C[C@@H](N)CN3C(=O)CNC(=O)[C@H](Cc3ccc(C(=O)O)cc3)NC(=O)[C@H](Cc3c[nH]c4ccccc34)NC2=O)cc1

MRC5 IC50 [1]: 0.464 nM
B8: SEQ ID NO: 96 (peptide)
peptide: cyclo([TyrEtNAc]W[Phe(4-COOH)]G[Pro(trans-4-NH2)][1Nal(3S-Me)]D[dNMeA]G[Bip(4'-COOH)][1Nal]L[Aib][hTyr])
SMILES: CC(=O)NCCOc1ccc(C[C@@H]2NC(=O)[C@H](CCc3ccc(O)cc3)NC(=O)C(C)(C)NC(=O)[C@H](CC(C)C)NC(=O)[C@H](Cc3cccc4ccccc34)NC(=O)[C@H](Cc3ccc(-c4ccc(C(=O)O)cc4)cc3)NC(=O)CNC(=O)[C@@H](C)N(C)C(=O)[C@H](CC(=O)O)NC(=O)[C@H]([C@@H](C)c3cccc4ccccc34)NC(=O)[C@@H]3C[C@@H](N)CN3C(=O)CNC(=O)[C@H](Cc3ccc(C(=O)O)cc3)NC(=O)[C@H](Cc3c[nH]c4ccccc34)NC2=O)cc1

MRC5 IC50 [1]: 0.0507 nM
B11: SEQ ID NO: 90 (peptide)
peptide: cyclo([TyrEtNAc]W[Phe(4-COOH)]G[Pro(trans-4-NH2)][1Nal(3S-Me)]D[dNMeA]G[Bip(4'-COOH)][Ala(indazol-1-yl)]G[dDab][h3Pal(5-CN)])
SMILES: CC(=O)NCCOc1ccc(C[C@@H]2NC(=O)[C@H](CCc3cncc(C#N)c3)NC(=O)[C@@H](CCN)NC(=O)CNC(=O)[C@H](Cn3ncc4ccccc43)NC(=O)[C@H](Cc3ccc(-c4ccc(C(=O)O)cc4)cc3)NC(=O)CNC(=O)[C@@H](C)N(C)C(=O)[C@H](CC(=O)O)NC(=O)[C@H]([C@@H](C)c3cccc4ccccc34)NC(=O)[C@@H]3C[C@@H](N)CN3C(=O)CNC(=O)[C@H](Cc3ccc(C(=O)O)cc3)NC(=O)[C@H](Cc3c[nH]c4ccccc34)NC2=O)cc1
